# Data taken from publication PMC9481612, “Molecular architecture of the augmin complex” (Nature Communications, 2022).
# T1: HAUS6 N-terminal region (a.a. 1–432) (human, UniProt Q7Z4H7 1-432)
# T1 construct: HAUS6, human, N-terminal region a.a; 1-432 (C-terminal region H6C, a.a. 433-955, deleted); also called H6N; H6 in augmin^ΔH6C; source: High5 insect cells, co-infected with baculoviruses; purified as part of the augmin^ΔH6C octamer (StrepII-Trap, Superose 6)
# T1 sequence (looked up): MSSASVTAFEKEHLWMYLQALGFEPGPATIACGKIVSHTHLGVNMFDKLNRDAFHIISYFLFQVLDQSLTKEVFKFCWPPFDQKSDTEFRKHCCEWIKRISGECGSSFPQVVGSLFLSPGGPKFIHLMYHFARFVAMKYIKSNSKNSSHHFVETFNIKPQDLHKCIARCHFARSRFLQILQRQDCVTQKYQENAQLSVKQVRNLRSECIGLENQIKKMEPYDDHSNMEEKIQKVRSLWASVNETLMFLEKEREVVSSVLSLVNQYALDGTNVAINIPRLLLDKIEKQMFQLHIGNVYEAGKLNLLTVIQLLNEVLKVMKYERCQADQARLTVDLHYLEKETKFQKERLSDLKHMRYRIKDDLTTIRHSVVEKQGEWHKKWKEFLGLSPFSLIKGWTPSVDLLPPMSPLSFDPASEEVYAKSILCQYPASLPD
# T2: HAUS5 (human, UniProt O94927 1-633)
# T2 construct: HAUS5, human; 633; also called H5; source: High5 insect cells, co-infected with baculoviruses; purified as part of the augmin octamer (StrepII-Trap, Superose 6)
# T2 sequence (looked up): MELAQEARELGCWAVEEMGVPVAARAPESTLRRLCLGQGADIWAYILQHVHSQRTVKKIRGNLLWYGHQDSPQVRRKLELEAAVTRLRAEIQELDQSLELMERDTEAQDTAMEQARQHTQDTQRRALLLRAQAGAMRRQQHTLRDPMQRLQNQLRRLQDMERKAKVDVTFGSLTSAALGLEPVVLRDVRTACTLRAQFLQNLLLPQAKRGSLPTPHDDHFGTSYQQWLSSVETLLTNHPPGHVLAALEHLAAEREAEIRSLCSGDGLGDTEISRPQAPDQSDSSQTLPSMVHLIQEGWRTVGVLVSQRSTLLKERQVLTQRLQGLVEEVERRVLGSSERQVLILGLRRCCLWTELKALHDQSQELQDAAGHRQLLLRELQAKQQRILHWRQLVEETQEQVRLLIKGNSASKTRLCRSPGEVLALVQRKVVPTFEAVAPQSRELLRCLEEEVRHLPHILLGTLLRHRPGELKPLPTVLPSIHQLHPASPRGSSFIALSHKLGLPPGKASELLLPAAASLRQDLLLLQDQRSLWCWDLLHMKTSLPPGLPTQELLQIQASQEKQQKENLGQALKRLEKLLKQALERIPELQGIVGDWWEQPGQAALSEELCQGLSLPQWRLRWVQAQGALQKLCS
# B1: HAUS8 (natural protein, human, UniProt Q9BT25 1-410, looked up)
# chain: MADSSGRGAGKPATGPTNSSSAKKKDKRVQGGRVIESRYLQYEKKTTQKAPAGDGSQTRGKMSEGGRKSSLLQKSKADSSGVGKGDLQSTLLEGHGTAPPDLDLSAINDKSIVKKTPQLAKTISKKPESTSFSAPRKKSPDLSEAMEMMESQTLLLTLLSVKMENNLAEFERRAEKNLLIMCKEKEKLQKKAHELKRRLLLSQRKRELADVLDAQIEMLSPFEAVATRFKEQYRTFATALDTTRHELPVRSIHLEGDGQQLLDALQHELVTTQRLLGELDVGDSEENVQVLDLLSELKDVTAKKDLELRRSFAQVLELSAEASKEAALANQEVWEETQGMAPPSRWYFNQDSACRESGGAPKNTPLSEDDNPGASSAPAQATFISPSEDFSSSSQAEVPPSLSRSGRDLS
# notes: HAUS8, human; 410; a.a; 1-138 and 340-410 are not seen in the cryo-EM map; also called H8; source: High5 insect cells, co-infected with baculoviruses; purified as part of the augmin octamer (StrepII-Trap, Superose 6)
# B2: HAUS3 (natural protein, human, UniProt Q68CZ6 1-603, looked up)
# chain: MSCGNEFVETLKKIGYPKADNLNGEDFDWLFEGVEDESFLKWFCGNVNEQNVLSERELEAFSILQKSGKPILEGAALDEALKTCKTSDLKTPRLDDKELEKLEDEVQTLLKLKNLKIQRRNKCQLMASVTSHKSLRLNAKEEEATKKLKQSQGILNAMITKISNELQALTDEVTQLMMFFRHSNLGQGTNPLVFLSQFSLEKYLSQEEQSTAALTLYTKKQFFQGIHEVVESSNEDNFQLLDIQTPSICDNQEILEERRLEMARLQLAYICAQHQLIHLKASNSSMKSSIKWAEESLHSLTSKAVDKENLDAKISSLTSEIMKLEKEVTQIKDRSLPAVVRENAQLLNMPVVKGDFDLQIAKQDYYTARQELVLNQLIKQKASFELLQLSYEIELRKHRDIYRQLENLVQELSQSNMMLYKQLEMLTDPSVSQQINPRNTIDTKDYSTHRLYQVLEGENKKKELFLTHGNLEEVAEKLKQNISLVQDQLAVSAQEHSFFLSKRNKDVDMLCDTLYQGGNQLLLSDQELTEQFHKVESQLNKLNHLLTDILADVKTKRKTLANNKLHQMEREFYVYFLKDEDYLKDIVENLETQSKIKAVSLED
# notes: HAUS3, human; 603; also called H3; source: High5 insect cells, co-infected with baculoviruses; purified as part of the augmin octamer (StrepII-Trap, Superose 6)
# Tests used:
# [1] = molecular target: T1, HAUS6 N-terminal region (a.a. 1–432); assay: cross-linking; purified augmin^ΔH6C with DSSO at 250:1, 500:1, 750:1 and 1000:1 molar ratio, 1 h on ice; trypsin in gel or in solution, LC-MS/MS, MetaMorpheus, 1% FDR; conditions: both partners purified
# HAUS5 = molecular target: T2, HAUS5; assay: as above; conditions: both partners purified
Binder,binding result [1],binding result (HAUS5)
B1,binds,
B2,,binds
